These results are taken from article PMC12256112.

Experiment [1] has as its target isolated Rpn11/Rpn8 heterodimer with Rpn11 A89F (S. cerevisiae) (UniProt P43588).
For experiment [2], the target named is isolated Rpn11/Rpn8 heterodimer with Rpn11 A89I (S. cerevisiae) (UniProt P43588).
For experiment [3], the target named is Rpn11 L132R, deubiquitinase subunit of the lid in the reconstituted receptor-deficient 26S proteasome (S. cerevisiae) (UniProt P43588).
For experiment [4], the target named is Rpn11, wild type, deubiquitinase subunit of the lid in the reconstituted 26S proteasome (S. cerevisiae) (UniProt P43588).
For experiment [5] the target is unchanged. The source holds these as a separate data set.
For experiment [6], the target named is Rpn11 A89F, deubiquitinase subunit of the lid in the reconstituted receptor-deficient 26S proteasome (S. cerevisiae) (UniProt P43588).
In experiment [7] the target is Rpn11, wild type, deubiquitinase subunit of the lid in the reconstituted 26S proteasome (S. cerevisiae) (UniProt P43588). The source holds these as a separate data set.
Experiment [8] concerns the target Rpt5, ATPase subunit of the base, in the reconstituted 26S proteasome (S. cerevisiae) (UniProt P33297).

In the case of Ubiquitin-TAMRA, the deubiquitinase activity of the isolated Rpn11/Rpn8 heterodimer (0.5 μM) on 100 μM Ubiquitin-TAMRA, against wild-type Rpn11 (fluorescence polarisation, 30°C) in experiment [1] came to 1.3 fold; in experiment [2], 10 fold.

On to “mono-ubiquitinated GS substrate (titin I27^V15P with glycine-serine-rich initiation region, one ubiquitin K63R attached) (from UniProt P0CG63 1-76)”, for which the degradation rate of the mono-ubiquitinated GS substrate by the SspB-fused ARR-Pru-ΔUIM proteasome with Rpn11^L132R; no ubiquitin-mediated stimulation (bulk degradation assay) in experiment [3] is 0.25 min⁻¹. Further, the degradation rate of the mono-ubiquitinated GS substrate by the SspB-fused ARR-Pru-ΔUIM proteasome with wild-type Rpn11, against the non-ubiquitinated GS substrate (bulk degradation assay) in experiment [4] was 0.38 min⁻¹.

In turn, “poly-ubiquitinated GS substrate (titin I27^V15P with glycine-serine-rich initiation region, long ubiquitin chains attached) (from UniProt P0CG63 1-76)” gave a degradation rate of the GS substrate with long ubiquitin chains by SspB-fused ARR-Pru-ΔUIM proteasomes; 0.25 min^-1 for the non-ubiquitinated GS substrate (bulk degradation assay) in experiment [5] of 1 min⁻¹.

“unanchored K48-linked tetraubiquitin chain (from UniProt P0CG63 1-76)”: in experiment [6], the SspB-delivered substrate degradation by ARR-Pru-ΔUIM-A89F proteasomes without and with K48-Ub4 (bulk degradation assay) was 1.2 fold. Further, the average tail-insertion time constant of the wild-type proteasome without and with unanchored K48-Ub4 (single-molecule FRET substrate-processing assay) in experiment [7] turned out to be 1.39 s.

B1: Rpn10 with the R23E, D31K and E68K mutations in its VWA domain, as subunit of the reconstituted 26S proteasome (receptor)
chain: MVLEATVLVIDNSEYSRNGDFPETRFEAQIKSVEFIFQAKRNSNPENTVGLISGAGANPRVLSTFTAKFGKILAGLHDTQIEGKLHMATALQIAQLTLKHRQNKVQHQRIVAFVCSPISDSRDELIRLAKTLKKNNVAVDIINFGEIEQNTELLDEFIAAVNNPQEETSHLLTVTPGPRLLYENIASSPIILEEGSSGMGAFGGSGGDSDANGTFMDFGVDPSMDPELAMALRLSMEEEQQRQERLRQQQQQQDQPEQSEQPEQHQDK
On to B1, for which, in experiment [8], the SspB-delivered substrate degradation by proteasomes with Rpn10^EKK against wild-type proteasomes (bulk degradation assay) worked out at 1.6 fold and the s1-to-non-s1 transition rate of proteasomes with Rpn10^EKK against wild-type proteasomes (single-molecule FRET conformational dynamics assay) came out at 40%.
